# Data from paper PMC3949579.
# How the values were obtained:
# [1] = biological target: DBAIg (full recombinant mouse IgG2b antibody encoding the DBA/1J Ighv1-4 germline sequence) (mouse (DBA/1J) | mouse); test: SPR
# [2] = biological target: M2139Ig (full recombinant mouse IgG2b antibody with the M2139 sequence) (mouse); test: SPR
substance,measurement,setting,value
triple-helical J1 peptide (synthetic peptide containing the J1 epitope of type II collagen),Kd,[1],274 nM
same,koff,[1],0.00446 s⁻¹
same,kon,[1],16300 M⁻¹ s⁻¹
same,Kd,[2],38.8 nM
same,koff,[2],0.00268 s⁻¹
same,kon,[2],68900 M⁻¹ s⁻¹
